Measurements reported in patent US6680174.

Molecular target: mouse GDF-9 receptor on granulosa cells (mouse)
Experiment: cell-based or functional assay

- COX-2 mRNA (RT-PCR) after 24 hours with 100 ng/ml GDF-9: 50 fold
- HAS2 expression (RT-PCR) after 5 hours, 50 ng/ml and 100 ng/ml mGDF-9 against 10 ng/ml: 5 to 10 fold
- HAS2 expression (RT-PCR), granulosa cells cultured ~20 hrs with mGDF-9 media, against CHO control: 10 fold
- HAS2 mRNA (Northern blot, 4.8 kb and 3.2 kb forms) after 5 hours with 50 ng/ml GDF-9: 9.7 fold
- LH receptor mRNA (RT-PCR) with 10 ng/ml FSH, control-treated against cells treated with 100 ng/ml GDF-9: 30 fold
- cumulus expansion of oocytectomized complexes cultured 18 hours with 100 ng/ml GDF-9 (out of 44 complexes): 40
- fold decrease in HAS2 expression without GDF-9 (0-24 hours) against the peak level induced by 100 ng/ml GDF-9: 10 fold
- uPA RT-PCR band intensity at 5 hours, 100 ng/ml GDF-9, normalized to HPRT: 15 % of control
- uPA RT-PCR band intensity at 9 hours, 100 ng/ml GDF-9, normalized to HPRT: 9 % of control
- uPA mRNA (Northern blot) with 50 ng/ml GDF-9: 40 % of control
B1: recombinant mouse GDF-9, cleaved, mature, glycosylated form (21 kD) (ligand, UniProt Q07105 307-441, looked up)
chain: GQKAIRSEAKGPLLTASFNLSEYFKQFLFPQNECELHDFRLSFSQLKWDNWIVAPHRYNPRYCKGDCPRAVRHRYGSPVHTMVQNIIYEKLDPSVPRPSCVPGKYSPLSVLTIEPDGSIAYKEYEDMIATRCTCR
modifications: one N-linked oligosaccharide (single N-linked glycosylation site, Asn325)
